# Assay results: patent publication US20240219403
# Biological target: T1, NF1 GAP-related domain (GRD) (UniProt P21359)
# T1 sequence: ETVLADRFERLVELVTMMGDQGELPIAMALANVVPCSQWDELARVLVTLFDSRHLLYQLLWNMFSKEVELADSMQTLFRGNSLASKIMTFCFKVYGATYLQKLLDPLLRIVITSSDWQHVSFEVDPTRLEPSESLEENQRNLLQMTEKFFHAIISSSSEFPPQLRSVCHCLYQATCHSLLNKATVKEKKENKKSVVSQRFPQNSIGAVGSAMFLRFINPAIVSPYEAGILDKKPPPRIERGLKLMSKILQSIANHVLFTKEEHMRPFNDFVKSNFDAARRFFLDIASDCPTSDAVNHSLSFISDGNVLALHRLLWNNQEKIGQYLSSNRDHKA
substance,measurement,value
purified KRAS^WT loaded with GTP,GTP hydrolysis by KRAS^WT,"conventional RAS-GAPs (such as NF1), which potently enhance hydrolysis by KRAS^WT (FIG. 3B: NF1>>RGS3)"
